Measured values published in patent US20250276075A1, “METHODS OF TREATING AXL-EXPRESSING CANCERS WITH ANTI-AXL ANTIBODIES, ANTIBODY FRAGMENTS AND THEIR IMMUNOCONJUGATES” (BIOATLA, INC., priority 2020, published 2025).
“Also recorded” adds a separate entry of the source.

How the values were obtained:
rat Axl = target: T1, rat Axl (Rattus norvegicus, UniProt A0A0G2K2H0); experiment: BA3011 binding to rat Axl
T1 sequence (A0A0G2K2H0 21-879): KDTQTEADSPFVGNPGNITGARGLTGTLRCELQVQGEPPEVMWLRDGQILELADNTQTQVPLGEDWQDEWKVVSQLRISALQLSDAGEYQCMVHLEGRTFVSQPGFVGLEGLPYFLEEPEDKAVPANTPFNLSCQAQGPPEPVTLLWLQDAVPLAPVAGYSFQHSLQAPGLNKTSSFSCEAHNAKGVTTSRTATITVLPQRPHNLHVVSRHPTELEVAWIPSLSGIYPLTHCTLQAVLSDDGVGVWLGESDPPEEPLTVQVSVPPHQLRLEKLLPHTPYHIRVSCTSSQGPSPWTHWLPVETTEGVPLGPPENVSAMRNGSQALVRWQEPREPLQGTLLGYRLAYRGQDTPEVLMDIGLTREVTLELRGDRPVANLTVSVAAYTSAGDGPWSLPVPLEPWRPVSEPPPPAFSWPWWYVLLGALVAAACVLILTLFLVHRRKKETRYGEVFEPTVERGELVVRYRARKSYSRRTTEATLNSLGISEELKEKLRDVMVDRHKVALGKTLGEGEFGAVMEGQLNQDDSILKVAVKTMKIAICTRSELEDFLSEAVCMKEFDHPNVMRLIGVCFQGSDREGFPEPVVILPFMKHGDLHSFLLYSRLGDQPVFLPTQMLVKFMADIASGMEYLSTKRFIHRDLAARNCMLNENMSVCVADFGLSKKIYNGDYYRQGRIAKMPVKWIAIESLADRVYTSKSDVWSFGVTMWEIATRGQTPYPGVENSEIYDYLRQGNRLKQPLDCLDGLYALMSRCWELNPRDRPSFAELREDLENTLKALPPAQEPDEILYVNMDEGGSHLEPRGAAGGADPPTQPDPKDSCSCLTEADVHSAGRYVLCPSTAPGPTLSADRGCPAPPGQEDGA

cynomolgus monkey Axl = experiment: BA3011 binding to cynomolgus monkey Axl

B1: Mecbotamab vedotin (conjugate, chains of the INN, looked up)
VH: EVQLVQSGAEVKKPGATVKISCKVSGYSFWGATMNWIRQPPGKGLEWIGLIKPSNGGTSYNQKFKGRVTISADKSISTAYLQWSSLKASDTAMYYCAHGHYESYEAMDYWGQGTLVTVSS
VL: DIQMTQSPSSLSASVGDRVTITCKASQDVVSAVAWYQQKPGQAPRLLIYWQDTRHTGVPSRFSGSGSGTEFTLTISSLQPDDFATYYCQEHFSPPLTFGQGTKVEIK
modifications: MC-vc-PAB-MMAE conjugate
Rat Axl
  binding to rat Axl: not mouse or rat Axl; also recorded: lacked binding to the rodent enzyme
Cynomolgus monkey Axl
  cross-reactivity to the cynomolgus Axl protein: cross-reacted
Cynomolgus monkey Axl; conditions mimicking the TME (pH 6.0-7.0)
  binding to cynomolgus monkey Axl: high affinity and specificity
Cynomolgus monkey Axl; conditions mimicking the normal tissue environment (pH 7.3-7.4)
  binding to cynomolgus monkey Axl: reduced binding
